Experimental findings from article PMC11062913, “Structural basis of Integrator-dependent RNA polymerase II termination” (Nature, 2024) are described below.

The test has as its target T1, Integrator subunit INTS11(E203Q) (human, UniProt Q5TA45 1-600, E203Q).
T1 construct: INTS11, human; endonuclease subunit of the Integrator cleavage module; E203Q mutant with reduced catalytic activity used in all complexes for cryo-EM and XL-MS; Stood in the assays as a subunit of the Integrator–PP2A complex; also called INTS11(E203Q) mutant
Put plainly: cross-linking; XL-MS of the PEC–Integrator–PP2A–SOSS complex (mixed population of pre- and post-termination complexes): pooled glycerol-gradient peak fractions, 3 mM BS3, 30 min, 30 °C. The conditions noted are these: both partners purified.

B1: NABP2 (natural protein, human, UniProt Q9BQ15-1 1-211, looked up)
chain: MTTETFVKDIKPGLKNLNLIFIVLETGRVTKTKDGHEVRTCKVADKTGSINISVWDDVGNLIQPGDIIRLTKGYASVFKGCLTLYTGRGGDLQKIGEFCMVYSEVPNFSEPNPEYSTQQAPNKAVQNDSNPSASQPTTGPSAASPASENQNGNGLSAPPGPGGGPHPPHTPSHPPSTRITRSQPNHTPAGPPGPSSNPVSNGKETRRSSKR
notes: Treated with lambda protein phosphatase during purification; also called SOSS factor NABP2
For the molecule B1, the binding result is reported as “binds”.
